Key:
Assay type in all cases: physicochemical
[1] = Peptide stability by HPLC-PDA (0 h vs 3 h); settings: 1 mg/mL, 3 h at 20° C.
Description: The 3 h peptide stability was evaluated by high performance liquid chromatography equipped with a photo diode array detector.
The peptide stability of peptide […] (SEQ ID No: 1) was evaluated with HPLC-PDA and the Vydac Everest C18 column. The analytical solution (1 mg/mL) in acetonitrile/water (V/V)+0.1% m/V formic acid (i.e. matching solvent composition as the anti-adsorption diluent without hydrolysate components) was chromatographed with the gradient provided in Table 3. Analysis was performed with a Waters Alliance 2695 HPLC with a Waters 2695 Separations Module, combined with a Flow Through Needle, and a Waters 2996 Photodiode Array Detector with Empower 2 software for data acquisition (Waters, Milford, Mass., USA).
The peptide was injected at 0 h and 3 h.

[2] = Proof of principle (pilot experiment): peptide recovery over time in uncoated glass vial inserts, UHPLC-MS/MS; settings: anti-adsorption diluent Source 1, 100 ng/mL, glass vial insert
Description: The peptide with amino acid sequence […] (SEQ ID No: 1) was stored in uncoated (U)HPLC vial inserts at a concentration of 100 ng/mL in 2 different solvents for a total of approximately 2 h. […] The vials were stored in the UHPLC autosampler compartment during analysis and at 0 min a vial containing solvent 1 and 100 ng/mL peptide was injected onto the UHPLC-MS/MS to serve as reference. The peptide recovery was calculated by dividing the peptide peak area of each time point and condition by the peptide peak area of sample 0 min in solvent 1. Appropriate blank samples were first subjected to the UHPLC-MS/MS for evaluation of interfering substances. This experiment was performed in uniplicate.
UHPLC-MS/MS of peptide […] was conducted with an Acquity H-class quaternary solvent manager, connected to an Acquity Xevo TQ-S triple quadrupole mass spectrometer (Waters, Milford, Mass., USA). The column compartment was kept at 45° C. and the sample compartment at 20° C. Mobile phase A consisted of water/acetonitrile/dimethylsulfoxide 90/5/5 V/V/V supplemented with 0.1% m/V formic acid and mobile phase B consisted of water/acetonitrile/dimethylsulfoxide 5/90/5 V/V/V supplemented with 0.1% m/V formic acid. Chromatography was performed with an Acquity UHPLC BEH300 C18 column (2.1×100 mm, 1.7 μm particle size) (Waters) protected with a suitable guard column. […]

[3] = Functional evaluation of anti-adsorption diluent from 3 sources (consecutive transfer to 5 glass inserts); settings: 100 ng/mL in 50/50 V/V water/acetonitrile + 0.1% m/V formic acid
Description: Functional evaluation of anti-adsorption diluent from 3 sources. The functionality of anti-adsorption diluent Source 1, Source 2, and Source 3 was evaluated via the peptide […] (SEQ ID No. 1). The peptide was diluted in either solvent (50/50 V/V water/acetonitrile supplemented with 0.1% m/V formic acid) or in 1 of the 3 anti-adsorption diluent sources to a peptide concentration of 100 ng/mL. The solution was either transferred to an insert and immediately analyzed via UHPLC-MS/MS or repeatedly transferred to inserts (5 inserts in total), with analysis of the 5th insert. UHPLC-MS/MS was carried out as previously discussed in the proof of principle (pilot experiment)-section. To prevent peptide degradation, each sample was prepared immediately prior to injection. Per condition 3 replicates were analyzed.
The pilot and pivotal experiments were carried out using anti-adsorption diluent originating from Source 1. Since Bovine Serum Albumin can differ amongst suppliers, anti-adsorption diluent was prepared originating from 3 sources, referred to as Source 1, Source 2, and Source 3. […] (100 ng/mL analytical concentration) was evaluated and (II) the peptide solution was repeatedly transferred from one insert to another (5 inserts in total) with subsequent analysis of the 5th insert. […]

[4] = Anti-adsorption diluent applicability for polypropylene inserts; settings: 100 ng/mL, polypropylene insert, anti-adsorption diluent Source 1
Description: Anti-adsorption diluent applicability for polypropylene inserts. The functionality of the anti-adsorption diluent Source 1 in polypropylene inserts was evaluated via the peptide […] (100 ng/mL). The peptide was analyzed in (I) a glass insert with 50/50 V/V water/acetonitrile+0.1% m/V formic acid, (II) a polypropylene insert with 50/50 V/V water/acetonitrile+0.1% m/V formic acid, (III) a glass insert with anti-adsorption diluent Source 1, and (IV) a polypropylene insert with anti-adsorption diluent. The UHPLC-MS/MS method provided in the proof of principle experiment was applied. The experiment was performed in triplicate.
Previous experiments were all conducted using glass inserts. Plastic vials and inserts are also widely used for the chromatography of peptides. Therefore, the applicability of the anti-adsorption diluent was evaluated using a polypropylene insert. The peptide […] (100 ng/mL) was either analyzed using a glass or polypropylene insert with or without anti-adsorption diluent (see FIG. 11).

[5] = Proof of concept (pivotal experiment): D-optimal design for the injection solvent and vial coating that minimize glass adsorption, UHPLC-MS/MS peak area
Description: 36 model peptides were selected for evaluation of the anti-adsorption diluent general functionality. The most suitable solvent composition and need of vial coating with the anti-adsorption diluent was evaluated via a D-optimal design model generated by Modde software (Umetrics, Umea, Sweden).
The peptides were analyzed at the concentration specified in Table 5. For model optimization, the analysis wizard was used. […] In the next step, the non-significant model terms (i.e. those not contributing to a higher R^2 and/or Q^2) were removed via the coefficient plot. Outliers in the residuals normal probability plot and the observed versus predicted plot were removed. The optimum was calculated using the optimizer tool of the Modde software.
Using the same UHPLC-MS/MS apparatus as previously described in the proof of principle, the column compartment was kept at 60° C. and the sample compartment at 10° C. respectively. […] The peptides analyzed using the HILIC amide or C18 column system are mentioned in Table 7. […]
To further investigate the wide applicability of this novel anti-adsorption diluent, 36 peptides were selected. […] The necessity of prior coating the vial with anti-adsorption diluent was also evaluated in the same D-optimal design model. Prior to this experiment, the LC-MS suitability of the anti-adsorption diluent was evaluated by injecting the anti-adsorption diluent as such. […]

Sequence	Additional peaks after 3 h incubation (0.5% reporting threshold) [1]	Glass adsorption of the peptide when using the anti-adsorption diluent [2]	Peptide peak area after transfer to 5 inserts, as % of peak area without transfer [3]	Increase of peptide peak area with anti-adsorption diluent compared to without [4]	Peptide peak area ([5]; 1 nM with anti-adsorption diluent Source 1, glass vial)	Peptide peak area ([5]; 1 nM without anti-adsorption diluent, glass vial)
MFPTIPLSRLFDNAMLRAH (Pilot peptide) [pilot experiment peptide]	No additional peaks	completely abolished	approximately 10%	approximately 30%		
EQLSFTSIGILQLLTIGTRSCWFFYCRY (Q49) [Peptide Q49]					16772.4	1363.8
